Results from paper PMC11749891 (Nature structural & molecular biology, 2022).
* marks the point of attachment. Biotin = O=C1N[C@H]2[C@H](CS[C@H]2CCCCC(=O)*)N1; Ahx = NCCCCCC(=O)O

Columns and labels:
[1] = target: T1, Recombinant GFP-tagged Sov core NTD (aa 14–90), NTD Δ-SIMs (D. melanogaster, UniProt Q9W3W6 14-90); assay: pull-down
T1 sequence (looked up): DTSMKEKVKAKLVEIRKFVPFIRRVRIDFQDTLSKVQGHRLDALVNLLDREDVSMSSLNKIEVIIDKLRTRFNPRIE

[2] = target: T2, C-terminal His tagged Sov NTD (aa 14–90) (D. melanogaster, UniProt Q9W3W6 14-90); assay: ITC
T2 sequence (looked up): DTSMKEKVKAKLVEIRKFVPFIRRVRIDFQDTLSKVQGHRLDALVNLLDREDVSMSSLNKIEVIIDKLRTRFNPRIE

| Binder | binding result [1] | stoichiometry N [2] |
| --- | --- | --- |
| {Biotin-Ahx}-KMEPKIKEDADNAMLDSLLADPFENNS-NH2 (peptide, UniProt Q9W2H9 82-108, looked up, SMILES CC[C@H](C)[C@H](NC(=O)[C@H](CCCCN)NC(=O)[C@@H]1CCCN1C(=O)[C@H](CCC(=O)O)NC(=O)[C@H](CCSC)NC(=O)[C@H](CCCCN)NC(=O)CCCCCNC(=O)CCCC[C@@H]1SC[C@@H]2NC(=O)N[C@@H]21)C(=O)N[C@@H](CCCCN)C(=O)N[C@@H](CCC(=O)O)C(=O)N[C@@H](CC(=O)O)C(=O)N[C@@H](C)C(=O)N[C@@H](CC(=O)O)C(=O)N[C@@H](CC(N)=O)C(=O)N[C@@H](C)C(=O)N[C@@H](CCSC)C(=O)N[C@@H](CC(C)C)C(=O)N[C@@H](CC(=O)O)C(=O)N[C@@H](CO)C(=O)N[C@@H](CC(C)C)C(=O)N[C@@H](CC(C)C)C(=O)N[C@@H](C)C(=O)N[C@@H](CC(=O)O)C(=O)N1CCC[C@H]1C(=O)N[C@@H](Cc1ccccc1)C(=O)N[C@@H](CCC(=O)O)C(=O)N[C@@H](CC(N)=O)C(=O)N[C@@H](CC(N)=O)C(=O)N[C@@H](CO)C(N)=O) [Panx LxxLL peptide (aa 82–108), wildtype, biotinylated] | binds |  |
| KMEPKIKEDADNAMLDSLLADPFENNS (peptide, UniProt Q9W2H9 82-108, looked up) [His-SUMO tagged Panx LxxLL peptide (aa 82–108), wildtype] |  | 1.05 ± 0.03 |
